Test results as given in the supplement of paper PMC9116672.
± gives the standard deviation of the averaged measurements or the uncertainty stated by the source.

Experiments:
[1] = duplex melting temperature (HRM, EvaGreen); higher = more stable duplex
Description: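 Listed DNA strand annealed 1:1 with its complementary strand (95 °C 5 min, 0.1 °C/s to 20 °C). Melted in 1x NNE buffer (500 mM NaCl, 10 mM Na2HPO4, 1 mM EDTA, pH 7.0) with 1x EvaGreen on a LightCycler96 (37 to 97 °C, 0.1 °C/s). Tm is the peak of -dF/dT at the stated total duplex concentration; 4 replicates are averaged. PS oligos are non-stereospecific (Rp/Sp mixtures).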

[2] = duplex formation free energy ΔG50 (Van't Hoff fit of HRM Tm); higher = less stable duplex; conditions: temperature for dG: 50 °C, NaCl: 500 mM (unadjusted)
Description: (§1)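 Duplex of the listed DNA strand with its complement, in 1x NNE buffer (500 mM NaCl, pH 7.0) with 1x EvaGreen. ΔH and ΔS come from a Van't Hoff linear fit of 1/Tm against ln(CT/4) over 1-20 uM, using HRM Tm values.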

[3] = duplex formation enthalpy ΔH (Van't Hoff fit of HRM Tm); higher = less exothermic duplex formation; conditions: temperature for dG: 50 °C, NaCl: 500 mM (unadjusted)
Description: as §1

[4] = duplex formation entropy ΔS (Van't Hoff fit of HRM Tm); higher = smaller entropy loss on duplex formation; conditions: temperature for dG: 50 °C, NaCl: 500 mM (unadjusted)
Description: as §1

[5] = duplex concentration 1 µM, backbone: PO-PO (both strands phosphodiester DNA)
[6] = duplex concentration 1 µM, backbone: PS-PO (listed strand fully phosphorothioate, complement phosphodiester)
[7] = duplex concentration 1 µM, backbone: PS-PS (both strands fully phosphorothioate)
[8] = duplex concentration 2.5 µM, backbone: PO-PO (both strands phosphodiester DNA)
[9] = duplex concentration 2.5 µM, backbone: PS-PO (listed strand fully phosphorothioate, complement phosphodiester)
[10] = duplex concentration 2.5 µM, backbone: PS-PS (both strands fully phosphorothioate)
[11] = duplex concentration 5 µM, backbone: PO-PO (both strands phosphodiester DNA)
[12] = duplex concentration 5 µM, backbone: PS-PO (listed strand fully phosphorothioate, complement phosphodiester)
[13] = duplex concentration 5 µM, backbone: PS-PS (both strands fully phosphorothioate)
[14] = duplex concentration 7.5 µM, backbone: PO-PO (both strands phosphodiester DNA)
[15] = duplex concentration 7.5 µM, backbone: PS-PO (listed strand fully phosphorothioate, complement phosphodiester)
[16] = duplex concentration 7.5 µM, backbone: PS-PS (both strands fully phosphorothioate)
[17] = duplex concentration 10 µM, backbone: PO-PO (both strands phosphodiester DNA)
[18] = duplex concentration 10 µM, backbone: PS-PO (listed strand fully phosphorothioate, complement phosphodiester)
[19] = duplex concentration 10 µM, backbone: PS-PS (both strands fully phosphorothioate)
[20] = duplex concentration 15 µM, backbone: PO-PO (both strands phosphodiester DNA)
[21] = duplex concentration 15 µM, backbone: PS-PO (listed strand fully phosphorothioate, complement phosphodiester)
[22] = duplex concentration 15 µM, backbone: PS-PS (both strands fully phosphorothioate)
[23] = duplex concentration 20 µM, backbone: PO-PO (both strands phosphodiester DNA)
[24] = duplex concentration 20 µM, backbone: PS-PO (listed strand fully phosphorothioate, complement phosphodiester)
[25] = duplex concentration 20 µM, backbone: PS-PS (both strands fully phosphorothioate)
[26] = backbone: PO-PO (both strands phosphodiester DNA)
[27] = backbone: PS-PO (listed strand fully phosphorothioate, complement phosphodiester)
[28] = backbone: PS-PS (both strands fully phosphorothioate)

| Sequence | duplex melting temperature [1, 5] | duplex melting temperature [1, 6] | duplex melting temperature [1, 7] | duplex melting temperature [1, 8] | duplex melting temperature [1, 9] | duplex melting temperature [1, 10] | duplex melting temperature [1, 11] | duplex melting temperature [1, 12] | duplex melting temperature [1, 13] | duplex melting temperature [1, 14] | duplex melting temperature [1, 15] | duplex melting temperature [1, 16] | duplex melting temperature [1, 17] | duplex melting temperature [1, 18] | duplex melting temperature [1, 19] | duplex melting temperature [1, 20] | duplex melting temperature [1, 21] | duplex melting temperature [1, 22] | duplex melting temperature [1, 23] | duplex melting temperature [1, 24] | duplex melting temperature [1, 25] | duplex formation free energy ΔG50 [2, 26] | duplex formation free energy ΔG50 [2, 27] | duplex formation free energy ΔG50 [2, 28] | duplex formation enthalpy ΔH [3, 26] | duplex formation enthalpy ΔH [3, 27] | duplex formation enthalpy ΔH [3, 28] | duplex formation entropy ΔS [4, 26] | duplex formation entropy ΔS [4, 27] | duplex formation entropy ΔS [4, 28] |
| --- | --- | --- | --- | --- | --- | --- | --- | --- | --- | --- | --- | --- | --- | --- | --- | --- | --- | --- | --- | --- | --- | --- | --- | --- | --- | --- | --- | --- | --- | --- |
| AACGAATGTCAGCAATT | 62.43 ± 0.59 °C | 55.7 ± 0.6 °C | 47.1 ± 0.49 °C | 64.93 ± 0.41 °C | 58.37 ± 0.15 °C | 49.91 ± 0.19 °C | 66.97 ± 0.37 °C | 60.36 ± 0.23 °C | 52.27 ± 0.13 °C | 68.1 ± 0.45 °C | 61.59 ± 0.21 °C | 53.4 ± 0.093 °C | 69.1 ± 0.15 °C | 62.44 ± 0.15 °C | 54.261 ± 0.011 °C | 70.52 ± 0.15 °C | 63.69 ± 0.16 °C | 55.38 ± 0.048 °C | 71.52 ± 0.29 °C | 64.46 ± 0.11 °C | 56.34 ± 0.12 °C | -12.5 ± 0.15 kcal/mol | -11.05 ± 0.039 kcal/mol | -9.166 ± 0.023 kcal/mol | -74.4 ± 2.8 kcal/mol | -74.7 ± 1.1 kcal/mol | -68.5 ± 1.9 kcal/mol | -192 ± 8.3 cal/mol/K | -197 ± 3.4 cal/mol/K | -184 ± 5.7 cal/mol/K |
| TCTACACCGCGA | – | – | 41.3 ± 0.82 °C | – | – | 45.5 ± 0.56 °C | 62.45 ± 0.36 °C | 57 °C | 48.18 ± 0.13 °C | 64.36 ± 0.22 °C | 58.2 ± 0.61 °C | 49.78 ± 0.41 °C | 65.78 ± 0.25 °C | 60.1 ± 0.43 °C | 52 ± 0.91 °C | 67.547 ± 0.058 °C | 61.71 ± 0.24 °C | 54.2 ± 1.4 °C | 68.14 ± 0.13 °C | 63.08 ± 0.18 °C | – | -10.8 ± 0.19 kcal/mol | -9.65 ± 0.1 kcal/mol | -8.523 ± 0.038 kcal/mol | -54.3 ± 4.1 kcal/mol | -46.4 ± 3.2 kcal/mol | -44.4 ± 2.7 kcal/mol | -135 ± 12 cal/mol/K | -114 ± 9.5 cal/mol/K | -111 ± 8.4 cal/mol/K |
| TGTAAGACTTCTGCCAGAAA | 69.04 ± 0.47 °C | – | 51.3 ± 0.66 °C | 70.48 ± 0.32 °C | 62.5 ± 0.74 °C | 54 ± 0.63 °C | 71.8 ± 0.086 °C | 64.36 ± 0.58 °C | 56.14 ± 0.29 °C | 72.66 ± 0.2 °C | 65.49 ± 0.58 °C | 57.54 ± 0.21 °C | 73.31 ± 0.13 °C | 66.18 ± 0.34 °C | 58.2 °C | 73.99 ± 0.12 °C | 67.16 ± 0.27 °C | – | – | 67.83 ± 0.18 °C | – | -16.7 ± 0.45 kcal/mol | -12.4 ± 0.17 kcal/mol | -10.11 ± 0.025 kcal/mol | -126 ± 6.9 kcal/mol | -87.2 ± 3.7 kcal/mol | -73.5 ± 1.4 kcal/mol | -339 ± 20 cal/mol/K | -231 ± 11 cal/mol/K | -196 ± 4.2 cal/mol/K |
| ACATGACTCATCTTAGCCGGCGAG | 77.5 ± 1.1 °C | 71.03 ± 0.65 °C | 63.8 ± 0.81 °C | 79.47 ± 0.48 °C | 72.33 ± 0.54 °C | 65.78 ± 0.62 °C | 80.58 ± 0.42 °C | 73.6 ± 0.59 °C | 67.03 ± 0.46 °C | 81.54 ± 0.25 °C | 74.24 ± 0.52 °C | 68.06 ± 0.18 °C | 82.18 ± 0.17 °C | 75.03 ± 0.16 °C | 68.59 ± 0.11 °C | 82.95 ± 0.13 °C | 75.79 ± 0.14 °C | 69.29 ± 0.1 °C | 83.69 ± 0.2 °C | 76.42 ± 0.052 °C | 69.97 ± 0.13 °C | -19.9 ± 0.5 kcal/mol | -17.8 ± 0.41 kcal/mol | -14.53 ± 0.14 kcal/mol | -128 ± 5.6 kcal/mol | -133 ± 5.9 kcal/mol | -115 ± 2.6 kcal/mol | -336 ± 16 cal/mol/K | -356 ± 17 cal/mol/K | -311 ± 7.6 cal/mol/K |
| CGGCGCGCTG | – | – | 44.8 ± 1.1 °C | 66.4 °C | – | 47 ± 1.1 °C | 67.7 ± 0.9 °C | 64.9 ± 1.3 °C | 50 ± 1.2 °C | 69.25 ± 0.52 °C | 66.2 ± 0.84 °C | – | 70.35 ± 0.13 °C | 67.43 ± 0.12 °C | – | 70.84 ± 0.39 °C | 68.41 ± 0.079 °C | – | 72.07 ± 0.61 °C | 69.27 ± 0.21 °C | – | – | – | – | – | – | – | – | – | – |
| GGACGGCGTT | – | – | 39.971 ± 0.0066 °C | – | – | 43 ± 0.68 °C | – | – | 47.59 ± 0.14 °C | – | – | 50.3 ± 1.2 °C | 63.65 ± 0.51 °C | – | 50.8 ± 1.5 °C | 64.94 ± 0.51 °C | 61.1 ± 0.49 °C | 53.7 ± 0.47 °C | 65.94 ± 0.2 °C | 62.78 ± 0.33 °C | 53.7 °C | – | – | – | – | – | – | – | – | – |
